Assay [1] addresses T1, cell surface PILRA on human monocytes (human, UniProt Q9UKJ1 20-303). Nature of the assay: cell-based or functional assay.
For assay [2], the target named is T2, recombinant human PILRB (human, UniProt Q9UKJ0 20-191). The experiment in a line: SPR, Carterra LSA, steady-state fit. The method, then:
(§1) Binding kinetics of human anti-PILRA-IgG4 antibodies were evaluated by surface plasmon resonance (SPR) using a Carterra LSA instrument (Carterra, Salt Lake City, UT). Antibodies were immobilized in duplicate arrays onto an HC30M sensor chip (Carterra) by amine coupling according to the manufacturer's protocol. After priming the immobilized antibodies with HBS-EP+ (Teknova, Hollister, CA, #8022) running buffer with 0.5 mg/mL BSA (MP Biomedicals LLC, #820451), the immobilized antibodies were tested for their ability to bind to recombinant human PILRA (SEQ ID NO:1) and cynomolgus PILRA (SEQ ID NO:120) and to human PILRB (SEQ ID NO:105) and cynomolgus PILRB (SEQ ID NO:121).
(§2) For binding kinetics analysis, human and cynomolgus PILRA and PILRB analytes were diluted in running buffer to 440 to 470 nM, and diluted 3-fold serially five times, to 1.8 to 1.9 nM, and injected for five minutes over the entire chip using the single channel flow cell to measure association of binding to the immobilized antibodies. Dissociation of the analytes was measured for five minutes, followed by regeneration of the chip with two 30-second injections of 10 mM glycine pH 2.0.
For the human PILRB interactions, the binding was too weak and heterogenous for kinetic constants to be calculated in this assay. Therefore, steady-state affinities were estimated based on the binding level of each analyte concentration at the end of the injections.

Assay [3] deals with T3, recombinant human PILRA (human, UniProt Q9UKJ1 20-197). Nature of the assay: SPR, Biacore T200, antibody captured by anti-Fab. The method, then:
(§3) A subset of these antibodies was further evaluated using the Biacore T200 (Cytiva). Anti-PILRA antibodies were diluted to 10 μg/mL and captured using an anti-Fab (Cytiva, #28958325) surface on a CM4 chip, that was prepared by amine coupling according to the manufacturer's protocol. Human PILRA and cynomolgus PILRB were diluted in running buffer to 130 nM, and diluted 4-fold serially, twice, to 8 nM. Human PILRB was similarly diluted from 260 nM to 16 nM. These analytes were injected and allowed 2 minutes of association, followed by dissociation for 5 minutes.
(§4) Data were analyzed using Biacore evaluation software to generate kinetic constants. The equilibrium dissociation constants (KD) were calculated from the fitted association and dissociation rate constants (k-on and k-off) for each of the anti-PILRA antibodies. These Kn values are indicated with asterisks in Table 8 below.

Assay [4] addresses T3, recombinant human PILRA. The experiment in a line: SPR, Carterra LSA, antibody amine-coupled, kinetic fit. The method, then:
as §1, §2
For orientation: In SPR one partner is held on a chip, and binding of the other changes the refractive index at the surface.

Assay [5] has as its target T4, recombinant cynomolgus PILRA (SEQ ID NO:120) (cynomolgus monkey).
T4 construct: also called cyno PILRA
The description is as above. The method, then:
as §1, §2

Assay [6] addresses T5, human PILRA G78 on HEK293F cells (human, UniProt Q9UKJ1 20-303).
T5 construct: also called hA; G78 OE
Nature of the assay: FACS on HEK293F cells, binding on human PILRA (hA) over human PILRB (hB). The method, then: (§5) Conditioned media samples containing the tested anti-PILRA antibodies were assessed for binding to HEK293F cells overexpressing human PILRA (hA), human PILRB (hB), and cynomolgus PILRA (cA) by FACS. The conditioned media containing the tested antibodies were incubated with the cells for 30 min at 4° C., washed twice, and then detected with goat anti-human IgG secondary antibody (Alexa Fluor 647) at 1:1000 dilution. The cells were analyzed by flow cytometry on FACS Canto II, and for all cell lines, the reported MFI values were calculated for each conditioned media. These antibodies were evaluated for nonspecific binding using a baculovirus particle (BVP) assay (Jain T., Sun T., Durand S., Hall A., Houston N. R., Nett J. H., Sharkey B., Bobrowicz B., Caffry L, Yu Y., et al. Biophysical properties of the clinical-stage antibody landscape. Proc. Natl. Acad. Sci. USA. 2017; 114:944-949. Doi: 10.1073/pnas.1616408114.). The BVP scores are listed in Table 9, and the higher the score the more nonspecific binding that occurred.

The target in assay [7] is T6, cynomolgus PILRA on HEK293F cells (cynomolgus monkey, UniProt A0A7N9CRU1 20-292). The experiment in a line: cA Kd of Table 9; method not stated (Example 8: HEK293F overexpressing cells, FACS).
Assay [8] concerns the target T5, human PILRA G78 on HEK293F cells. Nature of the assay: hA Kd of Table 9; method not stated (Example 8: HEK293F overexpressing cells, FACS).
Assay [9] has the same target. Nature of the assay: flow cytometry; HEK293F cells overexpressing human PILRA, goat anti-human IgG Alexa Fluor 647. The method, then:
as §5
For orientation: Flow cytometry measures light scatter and fluorescence of single cells or particles in a stream.

Assay [10] has as its target T2, recombinant human PILRB. Nature of the assay: SPR, Biacore T200, antibody captured by anti-Fab. The method, then: as §3, §4
Assay [11] has as its target T7, human PILRB on HEK293F cells (human, UniProt Q9UKJ0 20-227).
T7 construct: also called hB
The experiment in a line: hB Kd of Table 9; method not stated (Example 8: HEK293F overexpressing cells, FACS).

In assay [12] the target is T1, cell surface PILRA on human monocytes. Nature of the assay: flow cytometry; Alexa Fluor 647-conjugated antibody on human CD14+ monocytes, Fc receptors blocked, 30 min on ice. The method, then:
(§6) Anti-human PILRA antibodies X0 (PA-29) and its affinity matured variants were tested for their abilities to bind cell surface PILRA on human and cynomolgus monocytes. CD14+ monocytes were isolated from healthy human donors using a RosetteSep Human Monocyte Enrichment Cocktail kit (StemCell). Cynomolgus white blood cells were collected from cynomolgus whole blood. In both human and cynomolgus samples, the Fc receptor on the tested monocytes was blocked and the monocytes were treated with Alexa Fluor 647-conjugated PILRA antibodies for 30 minutes on ice. A dose response curve of antibodies X0 (PA-29), X1, X2, X7, X11, X12, X13, X14, X16, X18, and X20 was tested for binding to cell surface PILRA in human and cynomolgus monocytes, and antibodies bound to PILRA in a dose response manner. In another sample of human donor monocytes, a dose response curve of antibodies X0 (PA-29), X1, X2, X11, X13, X18, X29 (PA-43), and X34 (A6) was tested for binding to cell surface PILRA in human and cynomolgus monocytes, and antibodies bound to PILRA in a dose response manner.

Assay [13] has the same target. The experiment in a line: flow cytometry; Alexa Fluor 647-conjugated antibody on human CD14+ monocytes (second donor sample), Fc receptors blocked, 30 min on ice. The method, then: as §6
The target in assay [14] is T5, human PILRA G78 on HEK293F cells. Nature of the assay: flow cytometry blocking assay; antibody on HEK293F cells overexpressing human PILRA G78, then 5 ug/mL NPDC1 Fc as the blocked ligand; cell-bound NPDC1 Fc read as MFI. The method, then:
A dose response curve of antibodies X0 (PA-29), X1, X2, X7, X11, X12, X13, X14, X16, X18, and X20 was assessed for modulating the binding of Neural Proliferation Differentiation and Control Protein 1 (NPDC1) Fc to 293 cells ectopically expressing human PILRA (HEK293F human PILRA G78 overexpressing cells). Conditioned media samples containing antibodies were incubated with human PILRA overexpressing cells for 30 minutes at 4° C., and then 5 μg/mL NPDC1 Fc was added to this mixture. After 30 minutes of incubation at 4° C., the cells were washed and cell-bound NPDC1 Fc was detected with anti-human IgG Alexa Fluor 647. The cells were analyzed by flow cytometry on FACS Canto II with the percentage of NPDC1 Fc binding in the presence of conditioned media relative to NPDC1 Fc binding alone was calculated. […] All tested antibodies decreased binding of NPDC1 to human PILRA.

In assay [15] the target is T6, cynomolgus PILRA on HEK293F cells. Nature of the assay: flow cytometry; HEK293F cells overexpressing cynomolgus PILRA, goat anti-human IgG Alexa Fluor 647.

T7 sequence (Q9UKJ0 20-227): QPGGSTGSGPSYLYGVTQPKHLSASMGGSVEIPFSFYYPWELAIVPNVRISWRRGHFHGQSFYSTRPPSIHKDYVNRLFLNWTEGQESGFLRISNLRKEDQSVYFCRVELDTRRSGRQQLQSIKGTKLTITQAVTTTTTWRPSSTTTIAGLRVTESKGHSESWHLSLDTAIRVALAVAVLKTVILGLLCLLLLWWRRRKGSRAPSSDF
T1 sequence (Q9UKJ1 20-303): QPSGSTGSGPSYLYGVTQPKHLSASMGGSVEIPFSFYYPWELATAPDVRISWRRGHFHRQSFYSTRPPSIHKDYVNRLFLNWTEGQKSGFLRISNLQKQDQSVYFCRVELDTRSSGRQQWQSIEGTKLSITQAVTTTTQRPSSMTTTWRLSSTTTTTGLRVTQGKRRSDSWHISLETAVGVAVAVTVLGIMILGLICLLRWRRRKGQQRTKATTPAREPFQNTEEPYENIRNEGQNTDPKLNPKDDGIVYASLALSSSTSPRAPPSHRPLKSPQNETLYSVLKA
T2 sequence (Q9UKJ0 20-191 limits assumed): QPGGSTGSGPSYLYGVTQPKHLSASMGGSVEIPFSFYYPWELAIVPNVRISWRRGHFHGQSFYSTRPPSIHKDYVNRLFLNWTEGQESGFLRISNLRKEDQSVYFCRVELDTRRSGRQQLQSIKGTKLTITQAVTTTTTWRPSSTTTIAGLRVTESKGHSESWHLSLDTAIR
T4 sequence (chain, as listed by the source limits assumed): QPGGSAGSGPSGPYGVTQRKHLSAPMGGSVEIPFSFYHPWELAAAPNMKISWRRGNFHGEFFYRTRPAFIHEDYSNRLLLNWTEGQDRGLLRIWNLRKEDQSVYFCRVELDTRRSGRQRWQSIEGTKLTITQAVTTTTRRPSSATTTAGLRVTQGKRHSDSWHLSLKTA
T3 sequence (Q9UKJ1 20-197 limits assumed): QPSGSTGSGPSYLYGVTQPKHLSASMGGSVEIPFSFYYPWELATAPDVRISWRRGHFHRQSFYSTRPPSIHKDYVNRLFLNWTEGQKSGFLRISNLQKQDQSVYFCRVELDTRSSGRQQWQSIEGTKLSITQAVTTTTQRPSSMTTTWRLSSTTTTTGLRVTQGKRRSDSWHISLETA
T5 sequence (Q9UKJ1 20-303 R78G): as the sequence (Q9UKJ1 20-303) above, with R59G counted along it
T6 sequence (A0A7N9CRU1 entry or part of it): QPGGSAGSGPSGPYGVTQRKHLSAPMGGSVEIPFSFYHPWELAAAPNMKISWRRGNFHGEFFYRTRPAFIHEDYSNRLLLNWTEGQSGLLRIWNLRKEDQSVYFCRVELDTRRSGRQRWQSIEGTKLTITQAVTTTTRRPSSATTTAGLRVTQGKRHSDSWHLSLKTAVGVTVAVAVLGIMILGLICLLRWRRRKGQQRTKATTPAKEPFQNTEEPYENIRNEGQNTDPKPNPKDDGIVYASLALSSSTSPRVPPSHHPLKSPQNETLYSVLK

B1: X0 (PA-29) (antibody, V domains shown)
VH: QVQLVQSGAEVKKPGSSVKVSCKASGYNFLNYDVNWVRQAPGQGLEWMGGIIPIFGTANYAQKFQGRVTITADESTSTAYMELSSLRSEDTAVYYCATGVGAGWFDPWGQGTLVTVSS
VL: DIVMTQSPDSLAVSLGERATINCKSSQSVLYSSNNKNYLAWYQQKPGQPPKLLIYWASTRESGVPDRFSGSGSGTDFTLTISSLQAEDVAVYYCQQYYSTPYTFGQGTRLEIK
notes: conditioned media in the HEK293F assays; also called parental X0 (PA-29) antibody; XO (PA-29)
Usually Kd stands for the free concentration of one partner at which half of the binding sites on the other are occupied at equilibrium, for simple one-to-one binding. The term EC50 (read off the curve) denotes the midpoint of the concentration-response curve. B1: in assay [1], the “Hu Mono DR EC50” value came to 0.7 µg/mL. Further, in the assay with recombinant human PILRB [2], the binding result is “no binding”. Also, the Kd in the assay with recombinant human PILRA [3] turned out to be 294 nM; with recombinant human PILRA [4], 233 nM; in assay [5] it was 17 nM; in [7] it was 192 nM; in assay [8] it was 78.7 nM. Moreover, the “hA/hB binding ratio on HEK293F” value in assay [6] came out at 108. Besides, in assay [9], the “EC50 (read off the curve)” value was approximately 0.3 µg/mL.

B2: X1 (antibody, V domains shown)
VH: QVQLVQSGAEVKKPGSSVKVSCKASGYNFLHYDVNWVRQAPGQGLEWMGGIIPIFGTANYAQKFQGRVTITADESTSTAYMELSSLRSEDTAVYYCATAVGAGWFDTWGQGTLVTVSS
VL: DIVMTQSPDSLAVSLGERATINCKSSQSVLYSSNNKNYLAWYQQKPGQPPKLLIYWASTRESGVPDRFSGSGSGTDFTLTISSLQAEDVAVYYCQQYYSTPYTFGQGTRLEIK
notes: conditioned media in the HEK293F assays
As to B2, the “Hu Mono DR EC50” value in assay [1] turned out to be 0.02 µg/mL. Further, the Kd stood at 39 nM with recombinant human PILRB [2]; 1.6 nM with recombinant human PILRA [3]; 128 nM in the assay with recombinant human PILRB [10]; 2.5 nM with recombinant human PILRA [4]; 1.6 nM in assay [5]; 5.3 nM in [7]. Also, the results for the Kd in [8] and in assay [11] were 0.4 nM and 126 nM, respectively. Further, in assay [6], the “hA/hB binding ratio on HEK293F” value was determined as 56.7. Further, the “EC50 (read off the curve)” value in assay [9] was approximately 0.3 µg/mL; in assay [12] it was approximately 0.2 µg/mL; in assay [13] it was approximately 0.1 µg/mL. The “IC50 (read off the curve)” value in assay [14] is approximately 0.07 µg/mL.

B3: X11 (antibody, human IgG4, V domains shown)
VH: QVQLVQSGAEVKKPGSSVKVSCKASGYNFLNYDVNWVRQAPGQGLEWMGGIIPIFGTANYAQKFQGRVTITADESTSTAYMELSSLRSEDTAVYYCATGVGAGWFDPWGQGTLVTVSS
VL: DIVMTQSPDSLAVSLGERATINCKSSQSVYFSENNKNYLAWYQQKPGQPPKLLIYWASTRESGVPDRFSGSGSGTDFTLTISSLQAEDVAVYYCQQYYEEPYTFGQGTRLEIK
notes: as for B2
For the molecule B3, the “Hu Mono DR EC50” value in [1] was 0.3 µg/mL. Moreover, the Kd in the assay with recombinant human PILRB [2] is 80 nM; with recombinant human PILRA [3], 3.4 nM; with recombinant human PILRB [10], 142 nM; with recombinant human PILRA [4] it was 4.8 nM; in [5] it was 0.3 nM; in assay [7], 2.3 nM. The molecule also showed a Kd in [8] of 1.6 nM. The “hA/hB binding ratio on HEK293F” value in assay [6] is 79.8. Moreover, the “EC50 (read off the curve)” value is approximately 0.3 µg/mL in assay [9], approximately 0.5 µg/mL in [15], approximately 0.2 µg/mL in assay [12] and approximately 0.1 µg/mL in assay [13].

B4: X2 (antibody, V domains shown)
VH: QVQLVQSGAEVKKPGSSVKVSCKASGYNFLHYDVNWVRQAPGQGLEWMGGIIPIFGTANYAQKFQGRVTITADESTSTAYMELSSLRSEDTAVYYCATAVGAGWFDPWGQGTLVTVSS
VL: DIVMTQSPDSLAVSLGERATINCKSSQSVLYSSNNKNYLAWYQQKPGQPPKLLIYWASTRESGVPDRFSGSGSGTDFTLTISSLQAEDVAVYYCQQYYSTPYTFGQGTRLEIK
notes: as for B2
For the molecule B4, the “Hu Mono DR EC50” value in assay [1] was 0.1 µg/mL. The Kd in the assay with recombinant human PILRB [2] worked out at 53 nM; with recombinant human PILRA [3] it was 3.1 nM; with recombinant human PILRB [10] it was 157 nM; in the assay with recombinant human PILRA [4] it was 3.5 nM; in assay [5], 1.5 nM; in assay [7], 8.9 nM. Besides, the Kd in assay [8] is 0.8 nM; in [11], 216 nM. The “hA/hB binding ratio on HEK293F” value in assay [6] came to 71.1. Also, the “EC50 (read off the curve)” value in [15] is approximately 0.6 µg/mL; in [13], approximately 0.1 µg/mL.

B5: X18 (antibody, human IgG4, V domains shown)
VH: QVQLVQSGAEVKKPGSSVKVSCKASGYNFLHYDVNWVRQAPGQGLEWMGGIIPIFGTANYAQKFQGRVTITADESTSTAYMELSSLRSEDTAVYYCATAVGAGWFDTWGQGTLVTVSS
VL: DIVMTQSPDSLAVSLGERATINCKSSQSVWFDPNNKNYLAWYQQKPGQPPKLLIYWASTRESGVPDRFSGSGSGTDFTLTISSLQAEDVAVYYCQQYFEEPYTFGQGTRLEIK
notes: as for B2
Take B5: in [1], the “Hu Mono DR EC50” value was approximately 0.02 µg/mL. Also, the Kd with recombinant human PILRB [2] amounted to 4 nM; with recombinant human PILRA [4], 1.3 nM; in assay [5], 0.2 nM; in [7], 0.2 nM; in assay [8] it was 0.1 nM; in assay [11] it was 3.4 nM. In addition, the “hA/hB binding ratio on HEK293F” value in assay [6] stood at 6.5. Also, the results for the “EC50 (read off the curve)” value in assay [9] and in assay [13] were approximately 0.5 µg/mL and approximately 0.1 µg/mL, respectively.

(Values after US20260070976A1 (Alector, published 2026).)
